This note sets out measurements from patent publication EP2319931A1 (Inhibitex, Inc., dated 2011).

To fix the notation:
B1: biotinylated ClfB (His-tag recombinant region A) (other)
chain: SEQSNDTTQSSKNNASADSEKNNMIETPQLNTTANDTSDISANTNSANVDSTTKPMSTQTSNTTTTEPASTNETPQPTAIKNQATAAKMQDQTVPQEGNSQVDNKTTNDANSIATNSELKNSQTLDLPQSSPQTISNAQGTSKPSVRTRAVRSLAVAEPVVNAADAKGTNVNDKVTASNFKLEKTTFDPNQSGNTFMAANFTVTDKVKSGDYFTAKLPDSLTGNGDVDYSNSNNTMPIADIKSTNGDVVAKATYDILTKTYTFVFTDYVNNKENINGQFSLPLFTDRAKAPKSGTYDANINIADEMFNNKITYNYSSPIAGIDKPNGANISSQIIGVDTASGQNTYKQTVFVNPKQRVLGNTWVYIKGYQDKIEESSGKVSATDTKLRIFEVNDTSKLSDSYYADPNDSNLKEVTDQFKNRIYYEHPNVASIKFGDITKTYVVLVEGHYDNTGKNLKTQVIQENVDPVTNRDYSIFGWNNENVVRYGGGSADGDSAVN
modifications: Biotinylated with EZ link-sulfo-NHS-LC-Biotin (sites not given); N-terminal His-tag from pV4 left off.
notes: Region A (S45 to N542) amplified from S. aureus Newman genomic DNA, cloned in His-tag vector pV4, purified on nickel; also called ClfB region A; biotinylated purified ClfB region A
B3: biotinylated ClfA region A protein (other)
chain: SENSVTQSDSASNESKSNDSSSVSAAPKTDDTNVSDTKTSSNTNNGETSVAQNPAQQETTQSSSTNATTEETPVTGEATTTTTNQANTPATTQSSNTNAEELVNQTSNETTFNDTNTVSSVNSPQNSTNAENVSTTQDTSTEATPSNNESAPQSTDASNKDVVNQAVNTSAPRMRAFSLAAVAADAPAAGTDITNQLTNVTVGIDSGTTVYPHQAGYVKLNYGFSVPNSAVKGDTFKITVPKELNLNGVTSTAKVPPIMAGDQVLANGVIDSDGNVIYTFTDYVNTKDDVKATLTMPAYIDPENVKKTGNVTLATGIGSTTANKTVLVDYEKYGKFYNLSIKGTIDQIDKTNNTYRQTIYVNPSGDNVIAPVLTGNLKPNTDSNALIDQQNTSIKVYKVDNAADLSESYFVNPENFEDVTNSVNITFPNPNQYKVEFNTPDDQITTPYIVVVNGHIDPNSKGDLALRSTLYGYNSNIIWRSMSWDNEVAFNNGSGSGDGIDKPVVPEQPDEPGEIEPIPE
modifications: biotinylated (sites not given)
notes: domain: region A; also called biotinylated recombinant region A from ClfA; C1fA region A

Assay [1] deals with T1, bovine serum albumin (bovine, UniProt P02769 25-607).
T1 construct: Negative control coat in ELISA; also called BSA
The assay is described as follows: direct ELISA, biotinylated region A on BSA-coated plates. (An ELISA detects its analyte on a solid surface through an enzyme-linked reagent.)

Assay [2] has as its target T2, human fibrinogen (human, UniProt P02671 20-629; P02675 31-491; P02679 27-437).
T2 construct: Purified human fibrinogen, bought (Chromogenix for ELISA, Calbiochem for clumping); The plate adherence assays say only 'fibrinogen'; also called solid phase fibrinogen; immobilized fibrinogen
T2 sequence 1: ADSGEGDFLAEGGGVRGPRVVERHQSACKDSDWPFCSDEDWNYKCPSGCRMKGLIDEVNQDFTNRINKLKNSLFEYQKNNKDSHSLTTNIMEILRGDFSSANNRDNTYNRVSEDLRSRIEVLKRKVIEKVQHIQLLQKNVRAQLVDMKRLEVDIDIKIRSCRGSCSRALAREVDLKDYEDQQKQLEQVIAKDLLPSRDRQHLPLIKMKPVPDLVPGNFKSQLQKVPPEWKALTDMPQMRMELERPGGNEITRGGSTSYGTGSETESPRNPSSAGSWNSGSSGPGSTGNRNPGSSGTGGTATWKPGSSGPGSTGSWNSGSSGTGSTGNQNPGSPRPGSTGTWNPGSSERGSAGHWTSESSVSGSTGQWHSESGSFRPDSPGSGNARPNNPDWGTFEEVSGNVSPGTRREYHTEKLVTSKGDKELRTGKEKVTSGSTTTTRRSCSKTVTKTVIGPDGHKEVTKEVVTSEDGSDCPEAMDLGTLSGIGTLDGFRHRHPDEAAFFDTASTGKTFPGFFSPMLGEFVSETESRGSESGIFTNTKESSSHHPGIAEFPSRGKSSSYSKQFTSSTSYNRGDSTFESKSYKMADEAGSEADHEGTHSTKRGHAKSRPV
T2 sequence 2: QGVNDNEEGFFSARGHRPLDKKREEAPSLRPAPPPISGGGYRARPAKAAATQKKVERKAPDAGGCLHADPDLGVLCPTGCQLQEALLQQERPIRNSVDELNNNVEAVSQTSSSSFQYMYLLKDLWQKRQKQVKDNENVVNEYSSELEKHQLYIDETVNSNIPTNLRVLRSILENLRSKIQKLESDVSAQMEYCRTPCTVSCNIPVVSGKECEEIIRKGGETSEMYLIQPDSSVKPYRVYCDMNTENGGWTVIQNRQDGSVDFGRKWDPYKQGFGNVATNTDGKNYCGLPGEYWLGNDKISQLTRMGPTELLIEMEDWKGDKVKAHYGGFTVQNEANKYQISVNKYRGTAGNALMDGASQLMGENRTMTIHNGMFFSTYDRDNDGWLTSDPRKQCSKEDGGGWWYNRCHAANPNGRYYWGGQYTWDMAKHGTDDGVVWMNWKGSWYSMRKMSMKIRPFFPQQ
T2 sequence 3: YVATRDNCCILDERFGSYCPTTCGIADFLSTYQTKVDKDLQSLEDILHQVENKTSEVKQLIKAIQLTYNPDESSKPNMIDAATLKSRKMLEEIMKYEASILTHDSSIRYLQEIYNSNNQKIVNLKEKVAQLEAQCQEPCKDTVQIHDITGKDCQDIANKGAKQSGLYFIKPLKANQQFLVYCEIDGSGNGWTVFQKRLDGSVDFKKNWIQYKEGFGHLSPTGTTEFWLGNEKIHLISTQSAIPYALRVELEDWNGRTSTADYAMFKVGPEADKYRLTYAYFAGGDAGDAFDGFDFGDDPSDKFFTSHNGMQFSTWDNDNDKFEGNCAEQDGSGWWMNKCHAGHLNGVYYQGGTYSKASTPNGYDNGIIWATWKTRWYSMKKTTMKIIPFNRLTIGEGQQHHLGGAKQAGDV
The assay is described as follows: direct ELISA, biotinylated region A on fibrinogen-coated plates (Figure 14).

In assay [3] the target is T3, alpha chain of human fibrinogen (human, UniProt P02671 20-629).
T3 construct: Band of human fibrinogen (Chromogenix) after SDS-PAGE, on nitrocellulose; also called α chain of fibrinogen
T3 sequence: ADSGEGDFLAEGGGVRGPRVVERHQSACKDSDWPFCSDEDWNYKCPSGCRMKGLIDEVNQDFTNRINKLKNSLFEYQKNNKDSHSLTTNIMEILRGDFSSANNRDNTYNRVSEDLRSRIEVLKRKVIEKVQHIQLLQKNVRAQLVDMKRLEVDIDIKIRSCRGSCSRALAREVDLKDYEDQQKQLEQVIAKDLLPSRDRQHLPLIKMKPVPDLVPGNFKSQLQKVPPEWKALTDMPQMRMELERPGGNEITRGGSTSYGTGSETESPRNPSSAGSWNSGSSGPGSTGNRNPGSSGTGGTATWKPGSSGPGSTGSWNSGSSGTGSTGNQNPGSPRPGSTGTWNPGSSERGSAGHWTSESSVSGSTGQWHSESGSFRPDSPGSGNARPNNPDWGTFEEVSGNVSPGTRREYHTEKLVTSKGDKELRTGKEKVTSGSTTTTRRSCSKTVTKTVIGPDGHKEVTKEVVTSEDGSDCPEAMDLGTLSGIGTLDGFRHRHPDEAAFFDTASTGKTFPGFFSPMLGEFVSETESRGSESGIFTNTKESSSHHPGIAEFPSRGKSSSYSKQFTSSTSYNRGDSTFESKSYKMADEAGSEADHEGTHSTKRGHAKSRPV
As to the kind of experiment: Western affinity blot, blotted human fibrinogen probed with 2.5 µg/ml biotinylated ClfB region A.

Assay [4] concerns the target B1. The description is as above.
The target of assay [5] is B3. As to the kind of experiment: Western affinity blot (Figure 22), blotted human fibrinogen probed with 2.5 µg/ml biotinylated region A.

T1 sequence (P02769 25-607 limits assumed): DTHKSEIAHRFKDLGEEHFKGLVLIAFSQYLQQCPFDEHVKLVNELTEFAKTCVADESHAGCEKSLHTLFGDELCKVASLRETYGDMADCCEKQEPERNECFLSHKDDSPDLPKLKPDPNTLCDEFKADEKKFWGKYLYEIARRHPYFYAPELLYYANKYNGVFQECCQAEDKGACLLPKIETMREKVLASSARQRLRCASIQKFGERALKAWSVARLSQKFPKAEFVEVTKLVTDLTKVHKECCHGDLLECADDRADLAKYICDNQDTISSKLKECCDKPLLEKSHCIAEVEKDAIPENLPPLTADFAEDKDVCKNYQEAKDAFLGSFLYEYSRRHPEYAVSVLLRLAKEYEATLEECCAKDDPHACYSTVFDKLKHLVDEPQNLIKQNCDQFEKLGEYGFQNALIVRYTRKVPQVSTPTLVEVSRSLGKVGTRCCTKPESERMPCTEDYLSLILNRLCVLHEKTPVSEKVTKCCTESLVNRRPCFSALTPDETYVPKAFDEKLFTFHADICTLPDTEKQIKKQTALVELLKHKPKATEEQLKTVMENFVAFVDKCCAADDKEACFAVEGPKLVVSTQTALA

On to B1, for which the binding result in assay [1] was “no binding (tested: 0.1-10 µg/ml)”; in assay [2] it was “binds”; in assay [3], “binds”.

B2: beta chain of human fibrinogen (other)
chain: QGVNDNEEGFFSARGHRPLDKKREEAPSLRPAPPPISGGGYRARPAKAAATQKKVERKAPDAGGCLHADPDLGVLCPTGCQLQEALLQQERPIRNSVDELNNNVEAVSQTSSSSFQYMYLLKDLWQKRQKQVKDNENVVNEYSSELEKHQLYIDETVNSNIPTNLRVLRSILENLRSKIQKLESDVSAQMEYCRTPCTVSCNIPVVSGKECEEIIRKGGETSEMYLIQPDSSVKPYRVYCDMNTENGGWTVIQNRQDGSVDFGRKWDPYKQGFGNVATNTDGKNYCGLPGEYWLGNDKISQLTRMGPTELLIEMEDWKGDKVKAHYGGFTVQNEANKYQISVNKYRGTAGNALMDGASQLMGENRTMTIHNGMFFSTYDRDNDGWLTSDPRKQCSKEDGGGWWYNRCHAANPNGRYYWGGQYTWDMAKHGTDDGVVWMNWKGSWYSMRKMSMKIRPFFPQQ
notes: Band of human fibrinogen (Chromogenix) after SDS-PAGE, on nitrocellulose; also called β chain of fibrinogen
As to B2, in assay [4], the binding result is recorded as “binds”. For B3, the binding result in assay [1] was “no binding”. For the same molecule, in assay [2], the “binding at the highest concentration relative to ClfB region A” value was approximately 50 % greater than ClfB.

B4: gamma chain of human fibrinogen (other)
chain: YVATRDNCCILDERFGSYCPTTCGIADFLSTYQTKVDKDLQSLEDILHQVENKTSEVKQLIKAIQLTYNPDESSKPNMIDAATLKSRKMLEEIMKYEASILTHDSSIRYLQEIYNSNNQKIVNLKEKVAQLEAQCQEPCKDTVQIHDITGKDCQDIANKGAKQSGLYFIKPLKANQQFLVYCEIDGSGNGWTVFQKRLDGSVDFKKNWIQYKEGFGHLSPTGTTEFWLGNEKIHLISTQSAIPYALRVELEDWNGRTSTADYAMFKVGPEADKYRLTYAYFAGGDAGDAFDGFDFGDDPSDKFFTSHNGMQFSTWDNDNDKFEGNCAEQDGSGWWMNKCHAGHLNGVYYQGGTYSKASTPNGYDNGIIWATWKTRWYSMKKTTMKIIPFNRLTIGEGQQHHLGGAKQAGDV
notes: Band of human fibrinogen (Chromogenix) after SDS-PAGE, on nitrocellulose; also called γ chain of fibrinogen
B4: the binding result in assay [5] is listed as “binds”.
